Changes are numbered by the printed parent chain.
What was measured:
Test in all cases: SPR
[1] = molecular target: T1, GBP1 GTPase (human GBP1, recombinant wild type) (human, UniProt P32455 1-592)
T1 sequence (looked up): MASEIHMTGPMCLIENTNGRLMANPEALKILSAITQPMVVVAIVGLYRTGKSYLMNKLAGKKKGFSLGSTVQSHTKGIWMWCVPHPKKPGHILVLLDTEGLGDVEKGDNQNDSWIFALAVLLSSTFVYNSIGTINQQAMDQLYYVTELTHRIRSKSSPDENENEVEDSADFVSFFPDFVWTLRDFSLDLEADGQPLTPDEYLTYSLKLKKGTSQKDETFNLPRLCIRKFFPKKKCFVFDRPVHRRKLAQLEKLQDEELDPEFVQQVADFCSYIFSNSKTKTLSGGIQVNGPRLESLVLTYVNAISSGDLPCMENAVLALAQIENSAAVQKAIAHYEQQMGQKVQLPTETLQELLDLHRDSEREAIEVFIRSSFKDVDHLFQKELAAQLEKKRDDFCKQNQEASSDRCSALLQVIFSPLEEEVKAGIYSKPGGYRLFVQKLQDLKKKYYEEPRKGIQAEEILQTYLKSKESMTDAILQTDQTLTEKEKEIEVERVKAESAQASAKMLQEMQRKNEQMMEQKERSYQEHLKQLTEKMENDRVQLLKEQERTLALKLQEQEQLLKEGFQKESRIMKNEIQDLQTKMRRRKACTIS

GBP1 mutant R48A = molecular target: T2, GBP1 mutant R48A (human, UniProt P32455 1-592, R48A)
T2 sequence (looked up): T1 sequence (looked up) with R48A

GBP1 mutant K51A = molecular target: T3, GBP1 mutant K51A (human, UniProt P32455 1-592, K51A)
T3 sequence (looked up): T1 sequence (looked up) with K51A

GBP1 mutant D103N = molecular target: T4, GBP1 mutant D103N (human, UniProt P32455 1-592, D103N)
T4 sequence (looked up): T1 sequence (looked up) with D103N

- Kd [1]: 67 ± 20 nM
- Kd (GBP1 mutant R48A): 290 ± 21 nM
- Kd (GBP1 mutant K51A): 50 ± 10 nM
- Kd (GBP1 mutant D103N): 21 ± 1 nM
B1: PIM1 (recombinant) (enzyme)
chain: not shown

Reference: paper PMC4191604 (Journal of Medicinal Chemistry, 2014)
